Like-named read-outs stand apart in the source and are kept apart here.
Key:
cryo-EM structure [1] = target: the molecule itself; test: cryo-EM structure
cryo-EM structure [2] = target: the molecule itself; test: cryo-EM structure; remark: listed apart in the source

Protein | stoichiometry N (cryo-EM structure [1]) | stoichiometry N (cryo-EM structure [2])
Dam1C/DASH heterodecamer (recombinant) (complex, yeast (budding yeast)) chain 1: MSEDKAKLGTTRSATEYRLSIGSAPTSRRSSMGESSSLMKFADQEGLTSSVGEYNENTIQQLLLPKIRELSDSIITLDSNFTRLNFIHESLADLNESLGSLLYGIMSNSWCVEFSQAPHDIQDDLIAIKQLKSLEDEKNNLVMELSNMERGIKRKKDEQGENDLAKASQNKQFNQPLFPSSQVRKYRSYDNRDKRKPSKIGNNLQVENEEDYEDDTSSEASFVLNPTNIGMSKSSQGHVTKTTRLNNNTNSKLRRKSILHTIRNSIASGADLPIENDNVVNLGDLHPNNRISLGSGAARVVNGPVTKNRNSMFSGRAERKPTESRHSVAKKTEKKINTRPPFR chain 2: MMASTSNDEEKLISTTDKYFIEQRNIVLQEINETMNSILNGLNGLNISLESSIAVGREFQSVSDLWKTLYDGLESLSDEAPIDEQPTLSQSKTK chain 3: MDSIDEQIAIKRKELQSLQKITSLTDGLKIQLTELNEQIKEMGMNADSVAQLMNNWDSIINNISQASLGLLQYAEGDYEIGPWKDSKKKESEQSNETGLEAQENDKNDEDNDEDEDLVPLPETMVRIRVDGNE chain 4: MEHNLSPLQQEVLDKYKQLSLDLKALDETIKELNYSQHRQQHSQQETVSPDEILQEMRDIEVKIGLVGTLLKGSVYSLILQRKQEQESLGSNSK chain 5: MENPHEQVQANILSRIIGNVKRLNESVAILNQELVTINNRNKNLEIMGAICDNYHSSVQFNLEATNNKKPPL chain 6: MSEQSQLDDSTIDKLIPQIFNEMRSNLNNTTNKFPKSTGGGASDNISANSNSIRSFNSITTQSLLKESESLDKITAMIKNVTAALKNNLPVYVNQVHEVCKSTNSILDSWINIHSQAGYIHKLMSDQTYLKLINDRLHNENVNTNDEDGSTLHNVIALKKKEILDLRQKLENRKGEKDAAPAKPPNQGLNPRYGVQSGRRPVPSAGISNNGRVRKTHVPASKRPSGIPRVTNRWTKPTASSSRKMFR chain 7: MDSASKEETLEKLDQEITVNLQKIDSNLSFCFHKITQDIIPHVATYSEICERIMDSTEWLGTMFQETGLVNLQANAAAPVGNAPVKSLVSNNVGIFPTSAEEASRQSQTDNGPNEADSAVHVNRDVHSMFNNDSIDDFHTANITSTGQILKLPDSSDEDTGSEAVPSREQTDLTGEGHGGADDEQDESTIQRQSRKRKISLLLQQQYGSSSSMVPSPIVPNKMRKQLAHEEHINNDGDNDDENSNNIESSPLKQGHHHPKGQADDNNEGPDEEESTKEVPKPGTIIHFSTNR chain 8: MTDALEQSVLALEGTVSVLKDSVESLKCANEPSTNLASTMLQTKRVFRLVPEYDVERSKLDLIEEVEPLVRTLGDKLRKSMGRMQRELDTLQQTYELNDLRLKKNISMDDDDALNSPDMGQEYEGRDADDVVMMASSTNEELEELKKLKEKKKQLENKLEILKQK chain 9: MGESLDRCIDDINRAVDSMSTLYFKPPGIFHNAILQGASNKASIRKDITRLIKDCNHDEAYLLFKVNPEKQSVSRRDGKEGVFDYVIKRDTDMKRNRRLGRPGEKPIIHVPKEVYLNKDRLDLNNKRRRTATTSGGGLNGFIFDTDLIGSSVISNSSSGTFKALSAVFKDDPQIQRLLYALENGSVLMEEESNNQRRKTIFVEDFPTDLILKVMAEVTDLWPLTEFKQDYDQLYHNYEQLSSKLRFIKKEVLLQDDRLKTMSQYHPSSSHDVAKIIRKEKDEIRRLEMEIANLQE chain 10: MNANKQRQYNQLAHELRELQTNLQETTKQLDIMSKQCNENLVGQLGKVHGSWLIGSYIYYMEQMLGKTQ | 17 | 
Dam1C/DASH outer-kinetochore complex in yeast cells (complex) chain 1: MSEDKAKLGTTRSATEYRLSIGSAPTSRRSSMGESSSLMKFADQEGLTSSVGEYNENTIQQLLLPKIRELSDSIITLDSNFTRLNFIHESLADLNESLGSLLYGIMSNSWCVEFSQAPHDIQDDLIAIKQLKSLEDEKNNLVMELSNMERGIKRKKDEQGENDLAKASQNKQFNQPLFPSSQVRKYRSYDNRDKRKPSKIGNNLQVENEEDYEDDTSSEASFVLNPTNIGMSKSSQGHVTKTTRLNNNTNSKLRRKSILHTIRNSIASGADLPIENDNVVNLGDLHPNNRISLGSGAARVVNGPVTKNRNSMFSGRAERKPTESRHSVAKKTEKKINTRPPFR chain 2: MMASTSNDEEKLISTTDKYFIEQRNIVLQEINETMNSILNGLNGLNISLESSIAVGREFQSVSDLWKTLYDGLESLSDEAPIDEQPTLSQSKTK chain 3: MDSIDEQIAIKRKELQSLQKITSLTDGLKIQLTELNEQIKEMGMNADSVAQLMNNWDSIINNISQASLGLLQYAEGDYEIGPWKDSKKKESEQSNETGLEAQENDKNDEDNDEDEDLVPLPETMVRIRVDGNE chain 4: MEHNLSPLQQEVLDKYKQLSLDLKALDETIKELNYSQHRQQHSQQETVSPDEILQEMRDIEVKIGLVGTLLKGSVYSLILQRKQEQESLGSNSK chain 5: MENPHEQVQANILSRIIGNVKRLNESVAILNQELVTINNRNKNLEIMGAICDNYHSSVQFNLEATNNKKPPL chain 6: MSEQSQLDDSTIDKLIPQIFNEMRSNLNNTTNKFPKSTGGGASDNISANSNSIRSFNSITTQSLLKESESLDKITAMIKNVTAALKNNLPVYVNQVHEVCKSTNSILDSWINIHSQAGYIHKLMSDQTYLKLINDRLHNENVNTNDEDGSTLHNVIALKKKEILDLRQKLENRKGEKDAAPAKPPNQGLNPRYGVQSGRRPVPSAGISNNGRVRKTHVPASKRPSGIPRVTNRWTKPTASSSRKMFR chain 7: MDSASKEETLEKLDQEITVNLQKIDSNLSFCFHKITQDIIPHVATYSEICERIMDSTEWLGTMFQETGLVNLQANAAAPVGNAPVKSLVSNNVGIFPTSAEEASRQSQTDNGPNEADSAVHVNRDVHSMFNNDSIDDFHTANITSTGQILKLPDSSDEDTGSEAVPSREQTDLTGEGHGGADDEQDESTIQRQSRKRKISLLLQQQYGSSSSMVPSPIVPNKMRKQLAHEEHINNDGDNDDENSNNIESSPLKQGHHHPKGQADDNNEGPDEEESTKEVPKPGTIIHFSTNR chain 8: MTDALEQSVLALEGTVSVLKDSVESLKCANEPSTNLASTMLQTKRVFRLVPEYDVERSKLDLIEEVEPLVRTLGDKLRKSMGRMQRELDTLQQTYELNDLRLKKNISMDDDDALNSPDMGQEYEGRDADDVVMMASSTNEELEELKKLKEKKKQLENKLEILKQK chain 9: MGESLDRCIDDINRAVDSMSTLYFKPPGIFHNAILQGASNKASIRKDITRLIKDCNHDEAYLLFKVNPEKQSVSRRDGKEGVFDYVIKRDTDMKRNRRLGRPGEKPIIHVPKEVYLNKDRLDLNNKRRRTATTSGGGLNGFIFDTDLIGSSVISNSSSGTFKALSAVFKDDPQIQRLLYALENGSVLMEEESNNQRRKTIFVEDFPTDLILKVMAEVTDLWPLTEFKQDYDQLYHNYEQLSSKLRFIKKEVLLQDDRLKTMSQYHPSSSHDVAKIIRKEKDEIRRLEMEIANLQE chain 10: MNANKQRQYNQLAHELRELQTNLQETTKQLDIMSKQCNENLVGQLGKVHGSWLIGSYIYYMEQMLGKTQ |  | 17

From doi:10.1101/299487 (bioRxiv, 2018)
